Consider twelve molecules from patent US20220064275A1 (SCHOLAR ROCK, published 2022).

B1: Ab11 (antibody, IgG4, V domains shown)
VH: EVQLLESGGGLVQPGGSLRLSCAASGFTFRNYAMSWVRQAPGKGLEWVSSISGSGGATYYADSVKGRFTISRDNSKNTLYLQMNSLRAEDTAVYYCARVSSGHWDFDYWGQGTLVTVSS
VL: DIQLTQSPSSLSASVGDRVTITCRASQSISSYLNWYQQKPGKAPKLLIYAASNLQSGVPSRFSGSGSGTDFTLTISSLQPEDFATYYCQQTYTVPLTFGGGTKVEIK
B2: Ab20 (antibody, IgG4, V domains shown)
VH: B1 VH with R30S, N31A, S35T, S50A, A57V, F106Y
VL: B1 VL
B3: Ab12 (antibody, IgG4, V domains shown)
VH: B1 VH with E1Q, L5V, L11V, G16R, R30S, N31D, S35V, S50A, G56F, A57T
VL: B1 VL
B4: Ab19 (antibody, IgG4, V domains shown)
VH: QVQLVESGGGVVQPGRSLRLSCAASGFTFSSFAMTWVRQAPGKGLEWVSAISGSGAATYFADSVKGRFTISRDNSKNTLYLQMNSLRAEDTAVYYCARVSSGHWDFDEWGQGTLVTVSS
VL: B1 VL
B5: Ab22 (antibody, IgG4, V domains shown)
VH: EVQLVESGGGLVQPGGSLRLSCAASGFTFGSFSMNWVRQAPGKGLEWVSYIHSDASTIYYADSVKGRFTISRDNAKNSLYLQMNSLRAEDTAVYYCARGVLDYGDMLDPWGQGTLVTVSS
VL: DIQMTQSPSSLSASVGDRVTITCQASQDITNYLNWYQQKPGKAPKLLIYDASNLETGVPSRFSGSGSGTDFTFTISSLQPEDIATYYCQQADNHPPWTFGGGTKVEIK
B6: Ab33 (antibody, IgG4, V domains shown)
VH: B5 VH with G30S, H52S, S53P, D54S, S56D, S78T, R98H
VL: B5 VL
B7: Ab26 (antibody, IgG4, V domains shown)
VH: B5 VH with G30S, N35D, H52S, S53P, S78T
VL: B5 VL
B8: Ab29 (antibody, IgG4, V domains shown)
VH: B5 VH with G16R, G30S, S33A, H52S, S53P, D62G, A97V, G99A
VL: B5 VL
B9: Ab24 (antibody, IgG4, V domains shown)
VH: B5 VH with G16R, G30S, S33A, N35Y, H52S, S53P
VL: B5 VL
B10: Ab30 (antibody, IgG4, V domains shown)
VH: B5 VH with G30S, N35D, H52S, S53P, V100T
VL: B5 VL
B11: Ab32 (antibody, IgG4, V domains shown)
VH: B5 VH with G30S, H52S, S53P, D54S, S56D, S78T, L101W, Y103M
VL: B5 VL
B12: Ab31 (antibody, IgG4, V domains shown)
VH: B5 VH with G30S, N35D, H52S, S53P, S78T, G99A
VL: B5 VL

Residue numbers refer to the chain shown, from its start.

T2 sequence (Q86YC3 other isoform, or with tags, fused parts or gaps limits assumed, chain 1 of 2): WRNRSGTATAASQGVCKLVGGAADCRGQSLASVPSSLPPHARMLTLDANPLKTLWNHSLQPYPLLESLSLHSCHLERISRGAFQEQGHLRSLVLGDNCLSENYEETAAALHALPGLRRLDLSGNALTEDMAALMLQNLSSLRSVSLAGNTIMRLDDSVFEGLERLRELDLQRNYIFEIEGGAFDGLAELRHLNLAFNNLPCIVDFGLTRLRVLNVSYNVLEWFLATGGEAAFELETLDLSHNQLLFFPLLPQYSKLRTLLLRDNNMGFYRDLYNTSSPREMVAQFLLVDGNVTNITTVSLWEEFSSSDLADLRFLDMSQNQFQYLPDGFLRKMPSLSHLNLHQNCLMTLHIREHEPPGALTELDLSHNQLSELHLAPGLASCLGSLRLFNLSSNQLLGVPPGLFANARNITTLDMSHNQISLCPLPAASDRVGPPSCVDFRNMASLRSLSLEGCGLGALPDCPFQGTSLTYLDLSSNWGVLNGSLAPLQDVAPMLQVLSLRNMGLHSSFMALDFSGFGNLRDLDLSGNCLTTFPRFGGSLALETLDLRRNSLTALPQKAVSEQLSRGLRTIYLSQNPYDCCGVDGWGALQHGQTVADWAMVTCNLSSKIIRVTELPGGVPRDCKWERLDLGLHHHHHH
T2 sequence (P01137 30-390 limits assumed, chain 2 of 2): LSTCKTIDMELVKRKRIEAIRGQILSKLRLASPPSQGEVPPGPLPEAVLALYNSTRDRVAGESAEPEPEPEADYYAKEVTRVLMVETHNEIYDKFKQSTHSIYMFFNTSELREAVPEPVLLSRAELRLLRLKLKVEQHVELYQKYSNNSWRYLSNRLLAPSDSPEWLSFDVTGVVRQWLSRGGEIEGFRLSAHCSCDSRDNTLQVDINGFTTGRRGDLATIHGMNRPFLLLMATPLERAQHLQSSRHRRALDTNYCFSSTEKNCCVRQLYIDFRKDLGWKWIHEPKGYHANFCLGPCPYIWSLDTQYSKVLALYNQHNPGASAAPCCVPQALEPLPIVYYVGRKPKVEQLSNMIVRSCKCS
Sequence of hLTBP3-proTGFβ1 complex made by transfected cells (cell-based potency assay) (Q9NS15 44-1303, chain 1 of 2): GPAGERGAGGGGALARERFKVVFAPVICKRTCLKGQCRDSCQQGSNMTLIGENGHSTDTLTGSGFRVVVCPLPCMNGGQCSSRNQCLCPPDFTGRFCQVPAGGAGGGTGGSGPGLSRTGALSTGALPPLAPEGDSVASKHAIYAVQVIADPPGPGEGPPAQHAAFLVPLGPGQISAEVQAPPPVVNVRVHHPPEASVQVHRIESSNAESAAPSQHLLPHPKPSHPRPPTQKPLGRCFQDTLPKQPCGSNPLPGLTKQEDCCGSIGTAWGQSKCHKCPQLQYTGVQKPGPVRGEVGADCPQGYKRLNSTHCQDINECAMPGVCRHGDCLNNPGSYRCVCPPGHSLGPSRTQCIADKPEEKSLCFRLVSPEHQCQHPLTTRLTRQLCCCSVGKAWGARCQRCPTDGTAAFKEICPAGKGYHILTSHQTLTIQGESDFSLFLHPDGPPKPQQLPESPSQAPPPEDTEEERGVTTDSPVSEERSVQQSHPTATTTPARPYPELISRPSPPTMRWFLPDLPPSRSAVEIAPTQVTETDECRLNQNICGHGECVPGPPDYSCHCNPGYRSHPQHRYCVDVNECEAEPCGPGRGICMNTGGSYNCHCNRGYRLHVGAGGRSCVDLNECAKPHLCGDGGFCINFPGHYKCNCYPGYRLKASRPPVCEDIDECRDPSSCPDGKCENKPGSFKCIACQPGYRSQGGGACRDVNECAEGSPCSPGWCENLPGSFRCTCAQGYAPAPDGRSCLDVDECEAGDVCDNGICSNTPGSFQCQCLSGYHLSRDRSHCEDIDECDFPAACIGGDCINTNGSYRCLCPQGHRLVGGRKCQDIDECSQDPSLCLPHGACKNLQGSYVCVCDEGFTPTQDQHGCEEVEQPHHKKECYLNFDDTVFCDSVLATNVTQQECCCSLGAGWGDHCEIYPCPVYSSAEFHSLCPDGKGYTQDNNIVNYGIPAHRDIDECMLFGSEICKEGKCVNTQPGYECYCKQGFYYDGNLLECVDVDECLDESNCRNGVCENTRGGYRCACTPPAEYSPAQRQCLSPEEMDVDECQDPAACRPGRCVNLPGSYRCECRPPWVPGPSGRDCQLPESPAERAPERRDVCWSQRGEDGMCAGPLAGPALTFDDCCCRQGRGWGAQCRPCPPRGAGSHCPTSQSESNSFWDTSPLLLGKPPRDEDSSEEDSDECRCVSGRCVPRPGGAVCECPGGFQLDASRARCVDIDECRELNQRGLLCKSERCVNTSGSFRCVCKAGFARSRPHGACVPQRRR
Sequence of hLTBP3-proTGFβ1 complex made by transfected cells (cell-based potency assay) (P01137 30-390, chain 2 of 2): as the sequence (P01137 30-390 limits assumed, chain 2 of 2) above

For the first assay, the target named is T1, human LTBP3-proTGFβ1 complex (human, UniProt Q9NS15 866-1039).
T1 construct: range 866-1039; also called hLTBP3-proTGFβ1; hLTBP3
T1 sequence (Q9NS15 866-1039 limits assumed, chain 1 of 2): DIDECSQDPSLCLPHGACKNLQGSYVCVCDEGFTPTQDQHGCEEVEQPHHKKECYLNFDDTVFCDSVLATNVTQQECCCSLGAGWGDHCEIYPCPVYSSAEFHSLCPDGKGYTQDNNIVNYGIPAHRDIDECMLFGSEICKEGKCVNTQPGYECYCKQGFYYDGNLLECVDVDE
T1 sequence (chain, as listed by the source limits assumed, chain 2 of 2): as the sequence (P01137 30-390 limits assumed, chain 2 of 2) above
As to the kind of experiment: BLI (Octet). For orientation: BLI is a label-free optical method that tracks binding on a fibre tip over time.
As usually defined, the Kd is the free concentration of one partner at which half of the binding sites on the other are occupied at equilibrium, for simple one-to-one binding. Higher therefore signals lower affinity. B1 had a Kd of 0.154 nM.

In the case of B2, binding was put at a Kd of 0.131 nM.

On to B3, for which binding was characterised by a dissociation constant (Kd) of 0.183 nM.

Turning to B4, binding was put at a Kd of 0.156 nM.

B5 showed a Kd of 0.329 nM.

Regarding B6, the Kd worked out at 0.111 nM.

B7 yielded an equilibrium dissociation constant (Kd) of 0.173 nM.

For the molecule B8, the equilibrium dissociation constant (Kd) is 0.121 nM.

Take B9: the equilibrium dissociation constant (Kd) was found to be 0.198 nM.

B10: binding was put at a Kd of 0.261 nM.

For the molecule B11, binding was characterised by a dissociation constant (Kd) of 0.215 nM.

For the molecule B12, binding was characterised by a dissociation constant (Kd) of 0.181 nM.

A further assay addresses T2, human LRRC33-proTGFβ1 complex (human, UniProt Q86YC3 19-650; P01137 30-390).
T2 construct: also called hLRRC33-proTGFβ1; hLRRC33
Briefly: BLI (Octet).
The molecule B1 had a Kd of 0.555 nM.

For B2, the affinity, expressed as Kd, was 0.545 nM.

B3 displayed a Kd of 0.775 nM.

As for B4, binding was put at a Kd of 0.692 nM.

B5 displayed a Kd of 0.415 nM.

Take B6: the equilibrium dissociation constant (Kd) was 0.339 nM.

Consider B7, for which the equilibrium dissociation constant (Kd) was 0.36 nM.

For the molecule B8, the Kd worked out at 0.302 nM.

Regarding B9, binding was put at a Kd of 0.41 nM.

In turn, B10 gave a dissociation constant (Kd) of 0.535 nM.

As for B11, the dissociation constant Kd was determined as 0.698 nM.

Regarding B12, the Kd was 0.41 nM.

In a further assay the target is T3, human GARP-proTGFβ1 complex (human, UniProt Q14392 20-627; P01137 30-390).
T3 construct: also called hGARP-proTGFβ1; hGARP
T3 sequence (Q14392 20-627, chain 1 of 2): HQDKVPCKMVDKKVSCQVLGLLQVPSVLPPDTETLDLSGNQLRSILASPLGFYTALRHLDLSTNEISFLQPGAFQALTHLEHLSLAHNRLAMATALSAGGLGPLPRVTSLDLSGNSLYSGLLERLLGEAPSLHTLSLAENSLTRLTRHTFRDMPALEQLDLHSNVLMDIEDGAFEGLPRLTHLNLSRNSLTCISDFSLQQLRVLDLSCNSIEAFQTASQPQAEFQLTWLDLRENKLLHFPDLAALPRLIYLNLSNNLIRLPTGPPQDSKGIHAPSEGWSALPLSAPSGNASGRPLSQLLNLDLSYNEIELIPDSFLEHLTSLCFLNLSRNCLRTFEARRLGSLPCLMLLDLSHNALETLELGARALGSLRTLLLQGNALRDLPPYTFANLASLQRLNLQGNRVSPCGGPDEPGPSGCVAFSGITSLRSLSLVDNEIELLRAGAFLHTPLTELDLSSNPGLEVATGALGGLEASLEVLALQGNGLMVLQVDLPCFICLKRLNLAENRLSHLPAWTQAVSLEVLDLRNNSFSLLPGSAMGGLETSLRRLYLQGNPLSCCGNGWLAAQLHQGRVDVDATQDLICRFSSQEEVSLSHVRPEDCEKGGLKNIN
T3 sequence (P01137 30-390, chain 2 of 2): as the sequence (P01137 30-390 limits assumed, chain 2 of 2) above
Briefly: BLI (Octet).
Turning to B1, binding was put at a Kd of 0.842 nM.

With B2, the Kd was 0.884 nM.

The molecule B3 showed a dissociation constant (Kd) of 7.01 nM.

As for B4, the Kd was 11.2 nM.

On to B5, for which binding was put at a Kd of 0.974 nM.

Molecule B6 returned a Kd of 0.265 nM.

B7 registered an equilibrium dissociation constant (Kd) of 0.625 nM.

As to B8, the equilibrium dissociation constant (Kd) is 0.307 nM.

In the case of B9, binding was put at a Kd of 0.665 nM.

With B10, the Kd came out at 0.833 nM.

Turning to B11, the affinity, expressed as Kd, was 0.496 nM.

For B12, binding was characterised by a dissociation constant (Kd) of 0.581 nM.

Another assay concerns the target T4, human LTBP1-proTGFβ1 complex (human, UniProt Q14766 873-1507).
T4 construct: range 873-1507; biotinylated in Octet and MSD-SET; also called hLTBP1-proTGFβ1; hLTBP1
As to the kind of experiment: BLI (Octet).
Regarding B1, the Kd was 0.167 nM.

In turn, B2 showed an equilibrium dissociation constant (Kd) of 0.192 nM.

B3 yielded a Kd of 0.157 nM.

Molecule B4 yielded a Kd of 0.189 nM.

Molecule B5 displayed a Kd of 0.318 nM.

Molecule B6 returned a dissociation constant Kd of 0.179 nM.

On to B7, for which the equilibrium dissociation constant (Kd) came to 0.221 nM.

Regarding B8, the affinity, expressed as Kd, was 0.189 nM.

For the molecule B9, the Kd came out at 0.246 nM.

Take B10: the affinity, expressed as Kd, was 0.332 nM.

The molecule B11 displayed a Kd of 0.269 nM.

In turn, B12 returned a dissociation constant Kd of 0.236 nM.

In another assay the target is hGARP-proTGFβ1 complex on cells (human, UniProt Q14392 20-662; P01137 30-390). Briefly: cell-based or functional assay.
Sequence of hGARP-proTGFβ1 complex on cells (Q14392 20-662 limits assumed, chain 1 of 2): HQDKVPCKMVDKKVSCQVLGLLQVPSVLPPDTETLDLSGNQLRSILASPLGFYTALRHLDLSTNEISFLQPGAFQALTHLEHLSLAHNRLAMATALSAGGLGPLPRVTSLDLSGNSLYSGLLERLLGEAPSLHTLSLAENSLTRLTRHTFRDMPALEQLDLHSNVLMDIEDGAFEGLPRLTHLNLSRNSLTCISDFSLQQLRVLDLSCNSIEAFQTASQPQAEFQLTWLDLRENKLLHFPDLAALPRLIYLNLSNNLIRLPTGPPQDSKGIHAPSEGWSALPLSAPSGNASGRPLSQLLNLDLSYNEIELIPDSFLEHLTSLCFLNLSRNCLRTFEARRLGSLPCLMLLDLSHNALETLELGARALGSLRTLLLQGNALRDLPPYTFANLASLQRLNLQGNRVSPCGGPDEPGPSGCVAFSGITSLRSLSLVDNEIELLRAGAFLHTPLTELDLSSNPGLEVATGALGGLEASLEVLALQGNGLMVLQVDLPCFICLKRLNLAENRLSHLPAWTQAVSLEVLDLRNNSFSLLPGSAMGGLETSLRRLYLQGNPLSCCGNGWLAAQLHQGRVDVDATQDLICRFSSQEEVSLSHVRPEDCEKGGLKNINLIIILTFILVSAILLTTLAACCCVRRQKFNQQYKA
Sequence of hGARP-proTGFβ1 complex on cells (P01137 30-390 limits assumed, chain 2 of 2): as the sequence (P01137 30-390 limits assumed, chain 2 of 2) above
As to B1, the “IC50, reporter cell assay of TGFβ1 activation” value (“IC50, reporter cell assay” below) amounted to 0.79 nM.

For B2, the “IC50, reporter cell assay” value came to 0.387 nM.

For the molecule B3, the “IC50, reporter cell assay” value was 1.08 nM.

Take B4: the “IC50, reporter cell assay” value worked out at 1.34 nM.

On to B6, for which the “IC50, reporter cell assay” value stood at 0.198 nM.

Consider B7, for which the “IC50, reporter cell assay” value stood at 0.262 nM.

For the molecule B8, the “IC50, reporter cell assay” value came out at 0.264 nM.

The next assay has as its target hLTBP3-proTGFβ1 complex made by transfected cells (cell-based potency assay) (human, UniProt Q9NS15 44-1303; P01137 30-390). Briefly: cell-based or functional assay.
In the case of B1, the “IC50, reporter cell assay” value is 1.56 nM.

As for B2, the “IC50, reporter cell assay” value amounted to 1.18 nM.

For the molecule B3, the “IC50, reporter cell assay” value was 1.55 nM.

As to B4, the “IC50, reporter cell assay” value stood at 1.6 nM.

For the molecule B6, the “IC50, reporter cell assay” value came out at 1.11 nM.

Regarding B7, the “IC50, reporter cell assay” value was determined as 0.716 nM.

B8: the “IC50, reporter cell assay” value came to 0.803 nM.

A further assay addresses hLTBP1-proTGFβ1 complex made by transfected cells (cell-based potency assay) (human, UniProt Q14766 347-1721; P01137 30-390). Briefly: cell-based or functional assay.
Regarding B1, the “IC50, reporter cell assay” value turned out to be 2.95 nM.

On to B2, for which the “IC50, reporter cell assay” value is 1.85 nM.

In the case of B3, the “IC50, reporter cell assay” value turned out to be 3.79 nM.

In the case of B4, the “IC50, reporter cell assay” value was determined as 1.66 nM.

For the molecule B6, the “IC50, reporter cell assay” value came out at 1.56 nM.

Consider B7, for which the “IC50, reporter cell assay” value is 0.713 nM.

Take B8: the “IC50, reporter cell assay” value worked out at 0.471 nM.

The next assay deals with hLRRC33-proTGFβ1 complex on cells (human, UniProt Q86YC3 19-692; P01137 30-390). As to the kind of experiment: cell-based or functional assay.
Sequence of hLRRC33-proTGFβ1 complex on cells (Q86YC3 19-692 limits assumed, chain 1 of 2): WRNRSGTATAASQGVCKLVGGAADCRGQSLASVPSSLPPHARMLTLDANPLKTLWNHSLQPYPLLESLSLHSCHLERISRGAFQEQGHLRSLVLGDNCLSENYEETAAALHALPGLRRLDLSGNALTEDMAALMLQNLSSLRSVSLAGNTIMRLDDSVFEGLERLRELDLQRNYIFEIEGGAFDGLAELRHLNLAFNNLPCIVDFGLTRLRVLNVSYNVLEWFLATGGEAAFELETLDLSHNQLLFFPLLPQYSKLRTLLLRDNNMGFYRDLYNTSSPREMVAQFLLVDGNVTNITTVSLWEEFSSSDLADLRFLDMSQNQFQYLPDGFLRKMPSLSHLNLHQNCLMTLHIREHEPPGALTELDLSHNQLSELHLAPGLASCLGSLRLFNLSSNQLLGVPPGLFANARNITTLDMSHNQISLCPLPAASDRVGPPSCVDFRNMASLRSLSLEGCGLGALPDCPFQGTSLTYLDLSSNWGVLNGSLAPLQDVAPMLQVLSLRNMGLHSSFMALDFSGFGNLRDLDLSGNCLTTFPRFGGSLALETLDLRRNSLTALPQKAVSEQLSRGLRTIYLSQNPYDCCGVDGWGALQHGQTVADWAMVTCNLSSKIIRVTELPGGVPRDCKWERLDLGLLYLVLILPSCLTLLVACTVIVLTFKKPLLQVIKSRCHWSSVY
Sequence of hLRRC33-proTGFβ1 complex on cells (P01137 30-390 limits assumed, chain 2 of 2): as the sequence (P01137 30-390 limits assumed, chain 2 of 2) above
B1: the “IC50, reporter cell assay” value worked out at 1.27 nM.

For B2, the “IC50, reporter cell assay” value came out at 1.35 nM.

On to B3, for which the “IC50, reporter cell assay” value worked out at 2.43 nM.

Consider B4, for which the “IC50, reporter cell assay” value was 0.401 nM.

As to B6, the “IC50, reporter cell assay” value came to 0.738 nM.

Turning to B7, the “IC50, reporter cell assay” value was 0.341 nM.

For the molecule B8, the “IC50, reporter cell assay” value is 0.458 nM.

A further assay deals with T1, human LTBP3-proTGFβ1 complex. Briefly: MSD-SET, solution equilibrium titration. The method, then:
(§1) MSD-SET assays were performed to measure affinities of the antibodies at equilibrium. Briefly, each test antibody was diluted 3-5 fold and samples were mixed with biotinylated antigen in a 48-well dish. The SET samples were equilibrated for 20-24 hours at room temperature. Meanwhile, a capture plate was coated with IgG (20 nM) and incubated overnight at 4° C. or 30 minutes at room temperature, followed by a blocking step with 5% BSA. After the capture plate was washed three times, SET samples were added and incubated for 150 seconds. The plate was washed once to remove unbound complexes. 250 ng/ml SA-Sulfotag was added then washed 3 times. 2× Read Buffer was added, and signals from the labeled bound complexes were read with the use of QuickPlex™ SQ 120 instrument.
Molecule B1 displayed a Kd of 1.2 nM.

As for B2, binding was characterised by a dissociation constant (Kd) of 0.18 nM.

Molecule B3 had a Kd of 0.66 nM.

Regarding B4, binding was put at a Kd of 2.7 nM.

B5 came in with a Kd of 0.033 nM.

Take B6: binding was put at a Kd of 0.007 nM.

Consider B7, for which the Kd came to 0.023 nM.

As for B8, the Kd was found to be 0.011 nM.

The molecule B9 registered a Kd of 0.021 nM.

Regarding B10, binding was put at a Kd of 0.026 nM.

B11 came in with an equilibrium dissociation constant (Kd) of 0.026 nM.

The molecule B12 returned a Kd of 0.014 nM.

A further assay concerns the target T2, human LRRC33-proTGFβ1 complex. As to the kind of experiment: MSD-SET, solution equilibrium titration. As for the experimental part:
as §1
B1 displayed a Kd of 6.3 nM.

As to B2, the affinity, expressed as Kd, was 1.6 nM.

B3: the dissociation constant Kd was determined as 3.2 nM.

Molecule B4 showed a dissociation constant Kd of 5.7 nM.

On to B5, for which the Kd worked out at 0.2 nM.

As for B6, the equilibrium dissociation constant (Kd) was determined as 0.046 nM.

For B7, the Kd amounted to 0.13 nM.

B8 gave a dissociation constant (Kd) of 0.043 nM.

B9 had a Kd of 0.18 nM.

B10: the Kd was 0.14 nM.

Regarding B11, the Kd was determined as 0.087 nM.

In the case of B12, the equilibrium dissociation constant (Kd) came out at 0.096 nM.

Another assay addresses T3, human GARP-proTGFβ1 complex. As to the kind of experiment: MSD-SET, solution equilibrium titration. As for the experimental part: as §1
B1 came in with a Kd of 3 nM.

With B2, the affinity, expressed as Kd, was 1.1 nM.

B3 displayed a dissociation constant Kd of 1.7 nM.

For B4, the dissociation constant Kd worked out at 3.8 nM.

Take B5: binding was put at a Kd of 0.027 nM.

For the molecule B6, the affinity, expressed as Kd, was 0.0078 nM.

Consider B7, for which the affinity, expressed as Kd, was 0.014 nM.

Molecule B8 showed a Kd of 0.0055 nM.

On to B9, for which the Kd turned out to be 0.019 nM.

For the molecule B10, binding was put at a Kd of 0.022 nM.

With B11, the affinity, expressed as Kd, was 0.015 nM.

For the molecule B12, the dissociation constant Kd worked out at 0.019 nM.

A further assay deals with T4, human LTBP1-proTGFβ1 complex. As to the kind of experiment: MSD-SET, solution equilibrium titration. As for the experimental part: as §1
The molecule B1 registered a dissociation constant Kd of 1.2 nM.

Take B2: binding was put at a Kd of 0.22 nM.

B3: the Kd was determined as 0.78 nM.

B4: the dissociation constant Kd worked out at 2.1 nM.

In turn, B5 showed a Kd of 0.05 nM.

B6 had a Kd of 0.011 nM.

Turning to B7, the affinity, expressed as Kd, was 0.028 nM.

Take B8: the dissociation constant Kd is 0.012 nM.

As for B9, the affinity, expressed as Kd, was 0.024 nM.

With B10, the dissociation constant Kd was determined as 0.031 nM.

In the case of B11, the Kd is 0.037 nM.

B12: the Kd turned out to be 0.019 nM.
